Results as given in patent US20240002543A1 (MARENGO THERAPEUTICS, published 2024).

T1: cynomolgus CD3e (cynomolgus, UniProt Q95LI5 22-117, limits assumed)
T1 construct: also called cCD3e; cyno CD3e
T1 sequence (looked up): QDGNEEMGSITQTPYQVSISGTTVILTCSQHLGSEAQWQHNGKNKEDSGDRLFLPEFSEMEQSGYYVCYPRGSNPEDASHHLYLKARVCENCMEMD

T2: cynomolgus CD3e (cynomolgus, UniProt Q95LI5 22-117)
T2 chain: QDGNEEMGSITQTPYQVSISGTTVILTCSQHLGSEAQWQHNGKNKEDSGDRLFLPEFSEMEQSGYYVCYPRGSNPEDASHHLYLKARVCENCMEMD

T3: Human CD3e (Acro Biosystems CDE-H5223) (human, UniProt P07766 23-126)
T3 chain: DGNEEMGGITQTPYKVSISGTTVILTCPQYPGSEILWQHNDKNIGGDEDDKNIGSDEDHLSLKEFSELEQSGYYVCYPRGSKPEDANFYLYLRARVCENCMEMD


Key:
[1] = target: T1, cynomolgus CD3e; assay: SPR (Biacore T200), antibody captured via anti-human Fc, CD3e as analyte, 1:1 model
Method: (§1) In this example, exemplary humanized anti-CD3 antibody molecules BKM0020, BKM0025, BKM0028, BKM0038 (as described herein) were tested for their binding affinity to human or cynomolgus CD3e using surface plasmon resonance (SPR). SPR measurements were performed by using the BIAcore T200. Each construct was immobilized on a CM5 chip via Anti-human Fc antibody to a response of 200 RU. Human CD3e (Acro Biosystems CDE-H5223) was diluted to 500 nM and then diluted two-fold. Each analyte concentration was injected at a flow rate of 20 μl/min over the surface on which each antibody was immobilized. The data was fit using a 1:1 binding model. Affinity to human CD3e was preserved compared to the parental and affinity to cyno CD3e was two to three-fold lower compared to the parental antibody.

[2] = target: T4, Human CD3e (Acro Biosystems CDE-H5223) (human, UniProt P07766 23-126); assay: as above
T4 construct: Analyte in SPR; also called huCD3e
Method: as §1

[3] = target: T2, cynomolgus CD3e; assay: SPR
[4] = target: T3, Human CD3e (Acro Biosystems CDE-H5223); assay: SPR
[5] = target: T5, human CD3e on Jurkat cells (human, UniProt P07766 23-207); assay: flow cytometry (FACS) on Jurkat cells, 3-fold dilutions from 10 ug/ml, anti-human IgG AF647
T5 construct: whole, on cells; also called huCD3e; CD3 expressed on Jurkat cells
Method: Binding of the exemplary humanized anti-CD3 antibodies to CD3-expressing Jurkat cells was performed using FACS. Antibodies were tested in a series of 3-fold dilutions starting with 10 ug/ml concentration and detected using anti-human IgG secondary antibodies conjugated to AF647.

Row | binding result [1] | binding result [2] | Kd [3] | Kd [4] | binding result [5] | Binder
1 | binds | binds | 18.3 nM |  |  | BKM0025 (humanized anti-CD3 antibody molecule) (antibody, V domains shown, Captured via anti-human Fc antibody in SPR; constant regions not tied) VH: QVQLVQSGAEVKKPGASVKVSCKASGYTFTTYWMHWVRQAPGQGLEWMGNFNPNNGDTNYNEKFKTRVTMTVDKSTSTAYMELRSLRSDDMAVYYCARDDYGRYYFDYWGQGTLVTVSS VL: EIVMTQSPATLSLSPGERATLSCKSSQSLLNSRTRKNYLAWYQQKPGLAPRLLIYWAFTRESGIPDRFSGSGSGTDFTLTISRLEPEDFAVYYCKQSFILRTFGGGTKVEIK
2 | binds | binds | 9.98 nM | 6.34 nM | binds | BKM0020 (humanized anti-CD3 antibody molecule) (antibody, V domains shown, Captured via anti-human Fc antibody in SPR, so it carries a human Fc; constant regions not tied) VH: QVQLVQSGAEVKKPGASVKVSCKASGYTFTTYWMHWVRQAPGQGLEWMGNFNPNNGDTNYNEKFKTRVTMTVDKSTSTAYMELRSLRSDDMAVYYCARDDYGRYYFDYWGQGTLVTVSS VL: DIQMTQSPSTLSASVGDRVTITCKSSQSLLNSRTRKNYLAWYQQKPGKAPKLLIYWAFTRESGVPSRFSGSGSGTEFTLTISSLQPDDFATYYCKQSFILRTFGGGTKVEIK
3 | binds | binds | 14.1 nM | 6.47 nM |  | BKM0038 (humanized anti-CD3 antibody molecule) (antibody, V domains shown, Captured via anti-human Fc antibody in SPR; constant regions not tied) VH: QVQLVQSGAEVKKPGASVKVSCKASGYTFTTYWMHWVRQAPGKGLEWMGNFNPNNGDTNYNEKFKTRVTMTVDKSTSTAYMELSSLRSEDTAVYYCARDDYGRYYFDYWGQGTLVTVSS VL: DIQMTQSPSSLSASVGDRVTITCKSSQSLLNSRTRKNYLAWYQQKPGKAPKLLIYWAFTRESGVPSRFSGSGSGTDFTLTISSLQPEDFATYYCKQSFILRTFGGGTKVEIK
4 | binds | binds | 14.1 nM | 4.72 nM |  | BKM0028 (humanized anti-CD3 antibody molecule) (antibody, V domains shown, Captured via anti-human Fc antibody in SPR; constant regions not tied) VH: QVQLVQSGAEVKKPGASVKVSCKASGYTFTTYWMHWVRQAPGKGLEWMGNFNPNNGDTNYNEKFKTRVTMTVDKSTSTAYMELSSLRSEDTAVYYCARDDYGRYYFDYWGQGTLVTVSS VL: EIVMTQSPATLSLSPGERATLSCKSSQSLLNSRTRKNYLAWYQQKPGLAPRLLIYWAFTRESGIPDRFSGSGSGTDFTLTISRLEPEDFAVYYCKQSFILRTFGGGTKVEIK
